{"source": "paper PMC9226498", "about": "“Structural basis for interaction between CLAMP and MSL2 proteins involved in the specific recruitment of the dosage compensation complex in Drosophila” (Nucleic Acids Research, 2022)", "binders": {"B1": {"name": "MSL2^618–655 (domain or fragment, Drosophila melanogaster, UniProt P50534 618-655, looked up)", "chain": "ISLVPLNNLQQSQHPLVLVQNEKGEYQGFNIFQGSKPL", "notes": "Unlabelled or 13C,15N-labelled for NMR; Tags and their cleavage are told only in the Supplementary Information; also called MSL2 peptide; source: E. coli BL21 (DE3), purified (IMAC, anion-exchange chromatography)"}}, "target": "T1, CLAMP^40–153 (Drosophila melanogaster, UniProt Q9V9N4 40-153)", "T1 construct": "Tags and their cleavage are told only in the Supplementary Information; source: E. coli BL21 (DE3), purified (IMAC, anion-exchange chromatography)", "T1 sequence (looked up)": "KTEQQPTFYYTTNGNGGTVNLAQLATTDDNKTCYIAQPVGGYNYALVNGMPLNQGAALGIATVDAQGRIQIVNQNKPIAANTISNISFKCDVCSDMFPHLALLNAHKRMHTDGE", "test": "NMR titration; stable isotope-labeled MSL2 618–655 titrated with unlabeled CLAMP 40–153 (or CLAMP 41–153 L139A/K146E); chemical shift perturbation, fast exchange; 25°C", "conditions": "both partners purified"}
{"binder": "B1", "values": [{"measurement": "Kd", "result": "200 ± 100", "unit": "µM"}]}
